Reference: paper PMC5148612

Assays:
[1] = target: Atg5 K57E,N84E-TAP (S. cerevisiae) (UniProt Q12380); assay: co-IP; lysates of atg16∆ atg19∆ S. cerevisiae with integrated Atg5-TAP or Atg5 K57E,N84E-TAP, plasmid 6xmyc-Atg19 and plasmid Atg16 wild type; IgG beads (Figure 5F)
[2] = target: Atg5 K57E,N84E-TAP (S. cerevisiae) (UniProt Q12380); assay: co-IP; as a14 but with plasmid Atg16 E102A instead of Atg16 wild type (Figure 5F)

Atg5 K57E,N84E-TAP (S. cerevisiae), sequence (Q12380 whole entry K57E/N84E): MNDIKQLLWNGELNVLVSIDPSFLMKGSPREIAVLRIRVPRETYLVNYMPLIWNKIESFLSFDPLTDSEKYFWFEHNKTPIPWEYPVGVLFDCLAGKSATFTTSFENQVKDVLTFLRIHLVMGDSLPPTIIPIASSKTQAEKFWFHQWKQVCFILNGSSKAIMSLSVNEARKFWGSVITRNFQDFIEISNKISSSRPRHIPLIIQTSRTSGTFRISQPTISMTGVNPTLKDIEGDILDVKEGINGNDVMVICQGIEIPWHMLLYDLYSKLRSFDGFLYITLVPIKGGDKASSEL

For “6xmyc-Atg19 (from UniProt P35193 1-415) (natural protein)”, the 6xmyc-Atg19 pulled down, percent of the sample with wild type Atg5 and Atg16 [1] was 13% and the 6xmyc-Atg19 pulled down, percent of the sample with wild type Atg5 and Atg16 [2] was 2.9%.
